Patent publication US20260055200A1, “COMBINATION THERAPIES” (Alligator Bioscience AB, priority 2022, published 2026)
Entries after “also recorded” stand apart in the source; their conditions may differ.

Legend:
[1] = tested on: advanced stage solid tumours; details: cited from earlier work
[2] = tested on: metastatic pancreatic ductal adenocarcinoma; assay: OPTIMIZE-1 anti-tumour activity per RECIST v. 1.1 (ORR, BOR, DCR, DoR, time to progression, PFS, OS); assay type: in vivo, human
Method: The interim analysis was based on objective response rate (ORR) observed for all patients dosed at the mitazalimab RP2D. The interim analysis included efficacy data up to 17 weeks of study treatment (8 cycles for mFOLFIRINOX and 4 cycles for gemcitabine plus nab-paclitaxel).
A CT scan is performed at screening (within 28 days of first dose), 9 weeks after start of study treatment (end of cycle 4 for mFOLFIRINOX combination and at end of Cycle 2 for gemcitabine plus nab-paclitaxel treatment) and thereafter at every 8th week assuming no treatment delays. Additional CT scans may be performed at the discretion of the Investigator at unscheduled visits. The CT scans were evaluated according to RECIST v. […] Patients with response (PR or CR) can have a confirmatory CT scan at least 4 weeks later to confirm the response.
The evaluation of tumour response was done according to RECIST v. 1.1 by the investigational sites using CT scans according to Example 3 RECIST v. […] Patients with PD can discontinue study treatment. However, patients with suspected progression are allowed to continue on treatment if they are considered to be clinically stable in the opinion of the Investigator until clinical or radiological progression is documented.
For the interim analysis, the ORR was based on the response evaluation after 8 cycles for mitazalimab in combination with mFOLFIRINOX or 4 cycles for mitazalimab in combination with gemcitabine plus nab-paclitaxel (i.e., approximately 4 months after first dose). […] In addition, ORR was presented for each study visit. Patients not evaluable for ORR and who completed at least 2 cycles were considered as non-responders.
All secondary efficacy endpoint were presented using descriptive statistics. Best Overall Response (BOR) for each patient will be defined as the best response from RECIST v. 1.1 categories CR, PR, SD and PD at any time during the study. Disease control rate will be defined as either CR, PR or SD at each visit as determined by RECIST v. […] The duration of response (DoR) was defined as number of days from initial response of CR or PR to progressive disease or death due to underlying disease, whichever came first. Duration of Stable Disease (SD) was defined as number of days from first dose of mitazalimab to progressive disease or death, whichever came first. Time to next anti-cancer therapy was defined as number of days from the time from first dose of mitazalimab to next treatment initiated.

[3] = tested on: CD40-mediated immune cell activation; details: cited from earlier work
[4] = 450 μg/kg mitazalimab, N = 5, Table 42
[5] = 450 μg/kg mitazalimab, N = 5, safety set, Table 25
[6] = 900 μg/kg mitazalimab + mFOLFIRINOX, FAS N = 23, futility analysis, responses need not be confirmed
[7] = 900 μg/kg mitazalimab + mFOLFIRINOX, FAS N = 57
[8] = 900 μg/kg mitazalimab + mFOLFIRINOX, FAS N = 57, including unconfirmed responses
[9] = 900 μg/kg mitazalimab + mFOLFIRINOX, FAS N = 57, 95% CI (5.8-9.4)
[10] = 900 μg/kg mitazalimab + mFOLFIRINOX, FAS N = 57, first block of Table 49
[11] = 900 μg/kg mitazalimab + mFOLFIRINOX, FAS N = 57, second block of Table 49
[12] = 900 μg/kg mitazalimab + mFOLFIRINOX, FAS, n = 18
[13] = 900 μg/kg mitazalimab, N = 23, FAS, data cut-off 2022 Dec. 8
[14] = 900 μg/kg mitazalimab, N = 38, safety set, Table 25
[15] = 900 μg/kg mitazalimab, N = 65, Table 42
[16] = Overall, N = 43, safety set, Table 25
[17] = futility analysis (FAS), 900 μg/kg mitazalimab and mFOLFIRINOX, 23 patients
[18] = individual patients, End of Treatment visit, 900 μg/kg mitazalimab + mFOLFIRINOX, futility analysis
[19] = individual patients, Unscheduled visit, 900 μg/kg mitazalimab + mFOLFIRINOX, futility analysis
[20] = individual patients, visit Cycle 4, 900 μg/kg mitazalimab + mFOLFIRINOX, futility analysis
[21] = individual patients, visit Cycle 8, 900 μg/kg mitazalimab + mFOLFIRINOX, futility analysis

B1: Mitazalimab: agonistic, human monoclonal (IgG1) antibody targeting CD40 (antibody, chains of the INN, looked up, V domains shown)
VH: EVQLLESGGGLVQPGGSLRLSCAASGFTFSTYGMHWVRQAPGKGLEWLSYISGGSSYIFYADSVRGRFTISRDNSENALYLQMNSLRAEDTAVYYCARILRGGSGMDLWGQGTLVTVSS
VL: QSVLTQPPSASGTPGQRVTISCTGSSSNIGAGYNVYWYQQLPGTAPKLLIYGNINRPSGVPDRFSGSKSGTSASLAISGLRSEDEADYYCAAWDKSISGLVFGGGTKLTVL
doses shown safe and well tolerated ([1]; Phase I study NCT02829099): up to 1200 μg/kg | grade of most drug related adverse events ([1]; Phase I study NCT02829099): grade 1 or 2 | patients who experienced a DLT ([1]; headache 5 days, grade 3 liver enzyme with grade 2 bilirubin elevation): Two | MTD ([1]; human, in vivo, iv): No MTD was identified | duration of SD in one of seven pancreatic cancer patients ([1]; in vivo): more than 6 months | response observed ([1]; patient with renal cell cancer, 1200 μg/kg): partial response (PR) | time on study of the patient with PR ([1]; renal cell cancer, 1200 μg/kg, fourteen cycles): 9.2 months | Discontinued study: Death due to disease progression, number of patients [2, 4]: 4 | Discontinued study: Death due to disease progression, percentage relative to number discontinued [2, 4]: 80.0% | Discontinued treatment: Death, number of patients [2, 4]: 0 | Discontinued treatment: Death, percentage relative to number discontinued [2, 4]: 0.0% | Discontinued treatment: No longer clinically benefiting, number of patients [2, 4]: 0 | Discontinued treatment: No longer clinically benefiting, percentage relative to number discontinued [2, 4]: 0.0% | Discontinued treatment: Progressive disease, number of patients [2, 4]: 4 | Discontinued treatment: Progressive disease, percentage relative to number discontinued [2, 4]: 80.0% | Discontinued study: Death due to disease progression, number of patients [2, 5]: 2 | Discontinued study: Death due to disease progression, percentage of patients [2, 5]: (40.0) % | Discontinued treatment: Clear clinical deterioration, number of patients [2, 5]: 0 | Discontinued treatment: Clear clinical deterioration, percentage of patients [2, 5]: (0.0) % | Discontinued treatment: Death due to disease progression, number of patients [2, 5]: 2 | Discontinued treatment: Death due to disease progression, percentage of patients [2, 5]: (40.0) % | Discontinued treatment: Progressive disease, number of patients [2, 5]: 2 | Discontinued treatment: Progressive disease, percentage of patients [2, 5]: (40.0) % | Disease control rate (FAS) ([2]; 900 μg/kg Mitazalimab (N = 57) with mFOLFIRINOX, CR, PR or SD as best overall response, RECIST 1.1): 44 (77.2) | Disease control rate (CR, PR or SD), % ([2]; 900 μg/kg mitazalimab + mFOLFIRINOX, FAS N = 23, futility analysis): (91.3) % | Best Overall Response: Partial response, % [2, 6]: (52.2) % | Best Overall Response: Progressive disease, % [2, 6]: (8.7) % | Best Overall Response: Stable disease, % [2, 6]: (39.1) % | Responders (complete or partial response, RECIST 1.1), % [2, 6]: (52.2) % | BOR: Not evaluable, number of patients [2, 7]: 1 | BOR: Not evaluable, percentage of patients [2, 7]: (1.8) % | Time to progression: Censored patients, % [2, 7]: (54.4) % | Time to progression: Patients with event, % [2, 7]: (45.6) % | BOR: Complete response, number of patients [2, 8]: 0 | BOR: Complete response, percentage of patients [2, 8]: (0.0) % | BOR: Partial response, number of patients [2, 8]: 25 | BOR: Partial response, percentage of patients [2, 8]: (43.9) % | BOR: Progressive disease, number of patients [2, 8]: 12 | BOR: Progressive disease, percentage of patients [2, 8]: (21.1) % | BOR: Stable disease, number of patients [2, 8]: 19 | BOR: Stable disease, percentage of patients [2, 8]: (33.3) % | ORR: Confidence Interval of responders (two-sided exact binomial 90%) [2, 8]: 32.6-55.6 | ORR: Responders, number of patients [2, 8]: 25 | ORR: Responders, percentage of patients [2, 8]: (43.9) % | Progression-free survival: Median time to event [2, 9]: 7.2 months | Time to progression: Median time to event [2, 9]: 7.2 months | Progression-free survival: Censored patients, % [2, 10]: (52.6) % | Progression-free survival: Patients with event, % [2, 10]: (47.4) % | Overall survival: Censored patients, % [2, 11]: (78.9) % | Overall survival: Patients with event, % [2, 11]: (21.1) % | Duration of response: Censored patients, % [2, 12]: (72.2) % | Duration of response: Patients with event, % [2, 12]: (27.8) % | Time to response: Median time to event ([2]; 900 μg/kg mitazalimab + mFOLFIRINOX, FAS, n = 18, 95% CI (1.9-3.7)): 2.2 months | Duration of response: Median time to event ([2]; 900 μg/kg mitazalimab + mFOLFIRINOX, FAS, n = 18, 95% CI (5.5; NE)): 8.7 months | Discontinued study: Death due to disease progression, number of patients [2, 13]: 1 | Discontinued study: Death due to disease progression, percentage of patients [2, 13]: (4.3) % | Discontinued treatment: Clear clinical deterioration, number of patients [2, 13]: 1 | Discontinued treatment: Clear clinical deterioration, percentage of patients [2, 13]: (4.3) % | Discontinued treatment: Death due to disease progression, number of patients [2, 13]: 1 | Discontinued treatment: Death due to disease progression, percentage of patients [2, 13]: (4.3) % | Discontinued treatment: Progressive disease, number of patients [2, 13]: 2 | Discontinued treatment: Progressive disease, percentage of patients [2, 13]: (8.7) % | Discontinued study: Death due to disease progression, number of patients [2, 14]: 1 | Discontinued study: Death due to disease progression, percentage of patients [2, 14]: (2.6) % | Discontinued treatment: Clear clinical deterioration, number of patients [2, 14]: 1 | Discontinued treatment: Clear clinical deterioration, percentage of patients [2, 14]: (2.6) % | Discontinued treatment: Death due to disease progression, number of patients [2, 14]: 1 | Discontinued treatment: Death due to disease progression, percentage of patients [2, 14]: (2.6) % | Discontinued treatment: Progressive disease, number of patients [2, 14]: 3 | Discontinued treatment: Progressive disease, percentage of patients [2, 14]: (7.89) % | Discontinued study: Death due to disease progression, number of patients [2, 15]: 15 | Discontinued study: Death due to disease progression, percentage relative to number discontinued [2, 15]: 83.3% | Discontinued treatment: Death, number of patients [2, 15]: 1 | Discontinued treatment: Death, percentage relative to number discontinued [2, 15]: 3.0% | Discontinued treatment: No longer clinically benefiting, number of patients [2, 15]: 3 | Discontinued treatment: No longer clinically benefiting, percentage relative to number discontinued [2, 15]: 9.1% | Discontinued treatment: Progressive disease, number of patients [2, 15]: 19 | Discontinued treatment: Progressive disease, percentage relative to number discontinued [2, 15]: 57.6% | Discontinued study: Death due to disease progression, number of patients [2, 16]: 3 | Discontinued study: Death due to disease progression, percentage of patients [2, 16]: (7.0) % | Discontinued treatment: Clear clinical deterioration, number of patients [2, 16]: 1 | Discontinued treatment: Clear clinical deterioration, percentage of patients [2, 16]: (2.3) % | Discontinued treatment: Death due to disease progression, number of patients [2, 16]: 3 | Discontinued treatment: Death due to disease progression, percentage of patients [2, 16]: (7.0) % | Discontinued treatment: Progressive disease, number of patients [2, 16]: 5 | Discontinued treatment: Progressive disease, percentage of patients [2, 16]: (11.6) % | Discontinued treatment: Death, number of patients ([2]; Overall, Table 42): 1 | Discontinued treatment: Death, percentage relative to number discontinued ([2]; Overall, Table 42): 2.6% | Discontinued treatment: No longer clinically benefiting, number of patients ([2]; Overall, Table 42): 3 | Discontinued treatment: No longer clinically benefiting, percentage relative to number discontinued ([2]; Overall, Table 42): 7.7% | Discontinued treatment: Progressive disease, number of patients ([2]; Overall, Table 42): 24 | Discontinued treatment: Progressive disease, percentage relative to number discontinued ([2]; Overall, Table 42): 61.5% | ORR [2, 17]: 52.2% | disease control rate [2, 17]: 91.3% | responders with a confirmed response via a subsequent scan ([2]; futility analysis, 900 μg/kg mitazalimab and mFOLFIRINOX): 8 out of 12 | Non-target lesion(s) response [2, 18]: Non-CR/non-PD | Overall response [2, 18]: PD (progressive disease (PD)) | Target lesion(s) response [2, 18]: PD (progressive disease (PD)) | Non-target lesion(s) response [2, 19]: Non-CR/non-PD | Overall response [2, 19]: PD (progressive disease (PD)); also recorded: SD (stable disease (SD)) | Target lesion(s) response [2, 19]: PD (progressive disease (PD)); also recorded: SD (stable disease (SD)) | Non-target lesion(s) response [2, 20]: Non-CR/non-PD | Overall response [2, 20]: SD (stable disease (SD)) | Target lesion(s) response [2, 20]: SD (stable disease (SD)) | Non-target lesion(s) response [2, 21]: Non-CR/non-PD | Overall response [2, 21]: SD (stable disease (SD)); also recorded: PD (progressive disease (PD)) | Target lesion(s) response [2, 21]: SD (stable disease (SD)); also recorded: PD (progressive disease (PD)) | Best Overall Response ([2]; individual patients, 900 μg/kg mitazalimab + mFOLFIRINOX, futility analysis, responses need not be confirmed): PD (progressive disease (PD)); also recorded: SD (stable disease (SD)) | NK cells and T cells in peripheral blood after infusion ([3]; all doses except 75 μg/kg): decreased | B cells in peripheral blood after IV administration ([3]; all doses tested, dose-dependent recovery): margination of B cells was observed | time of peak of peripheral MCP-1, IP-10 and MIP-1B chemokines post-infusion ([3]; in vivo, ip): 1 to 4 h | CD40 receptor occupancy on B cells ([3]; in vivo): dose dependent | IL-6 levels following infusion ([3]; in vivo): not elevated | duration of CD40 engagement post administration ([3]; in vivo): through Day 8 | recovery of NK cell and T cell levels ([3]; in vivo): fully recovered by study Day 8
